According to paper doi:10.1101/008359, “TACC3–ch-TOG track the growing tips of microtubules independently of clathrin and Aurora-A phosphorylation” (bioRxiv, 2014):
Each block holds one binder with its values, some of them ahead of it.

Assays:
[1] = molecular target: T1, His-NusA-ch-TOG(1517-1957) wild type (UniProt Q14008 1517-1957); test: pull-down; His-NusA-ch-TOG(1517-1957) wild type and mutant proteins bound to Ni Sepharose beads, then incubated with TACC3(629-838); SDS-PAGE and Western blot with anti-TACC3 TACC domain antibody; His-NusA as tag binding control; conditions: both partners purified
T1 construct: held on Ni Sepharose beads by the His tag; source: recombinant, expressed and purified as stated in earlier work [11]; not shown: His, N-terminal, kept; NusA, N-terminal, kept
T1 sequence (Q14008 1517-1957): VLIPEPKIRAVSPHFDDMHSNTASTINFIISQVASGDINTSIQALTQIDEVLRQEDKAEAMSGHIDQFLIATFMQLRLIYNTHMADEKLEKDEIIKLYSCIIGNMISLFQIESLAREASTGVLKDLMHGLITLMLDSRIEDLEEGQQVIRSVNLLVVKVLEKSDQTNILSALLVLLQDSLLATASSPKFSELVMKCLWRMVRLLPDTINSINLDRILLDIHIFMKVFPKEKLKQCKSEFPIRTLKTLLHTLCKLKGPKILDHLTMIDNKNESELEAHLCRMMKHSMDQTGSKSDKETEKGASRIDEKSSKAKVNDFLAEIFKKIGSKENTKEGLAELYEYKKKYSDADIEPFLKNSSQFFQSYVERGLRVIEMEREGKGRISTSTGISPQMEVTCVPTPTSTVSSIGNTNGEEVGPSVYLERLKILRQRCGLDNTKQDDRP

ch-TOG(1517-1957) = molecular target: T2, ch-TOG(1517-1957) (UniProt Q14008 1517-1957); test: pull-down; His-NusA-TACC3(629-838) bound to Ni Sepharose beads and incubated with ch-TOG proteins; His-NusA as tag binding control; conditions: both partners purified
T2 construct: source: recombinant, expressed and purified as stated in earlier work [11]
T2 sequence (Q14008 1517-1957): as above

- binding result [1]: binds
B1: TACC3(629-838) (domain or fragment)
chain: not shown
notes: source: recombinant, expressed and purified as stated in earlier work [11]

- binding result (ch-TOG(1517-1957)): binds
B2: His-NusA-TACC3(629-838) (domain or fragment)
chain: not shown
notes: Held on Ni Sepharose beads by the His tag; source: recombinant, expressed and purified as stated in earlier work [11]; not shown: His, N-terminal, kept; NusA, N-terminal, kept
